Results taken from article PMC5446653.

Molecular target: human coxsackievirus and adenovirus receptor on CHO-CAR cells (human) (UniProt P78310)

soluble recombinant HAdV-5 fiber knob Y477A (from UniProt P11818 1-581) (domain or fragment)
inhibition of HAdV-5-EGFP transduction of CHO-CAR cells (EGFP-positive cells by flow cytometry) after preincubation with FK*, 0.0001 to 100 μg/10^5 cells, 1 h at 4°C (μg/10^5 cells): > 100
